Results published in PMC8822174.
pKd: −log10 of the molar value.

Key:
[1] = biological target: swine fibronectin (swine); test: SPR
[2] = biological target: swine plasminogen (swine); test: SPR

Substance | pKd [1] | pKd [2]
Mycoplasma pneumoniae enolase (from UniProt P75189 1-456) (enzyme) | < 6.00 | 6.52
Mycoplasma bovis enolase (from UniProt A0A454AQL1 1-454) (enzyme) | 6.31 | 7.02
Mycoplasma hyopneumoniae enolase (enzyme) | 7.13 | 7.20
